Among the data in patent US12448462 (dated 2025) are EC50 values, retold here.

The target in test [1] is T1, MUC1 (MUC1-C) on cells (UniProt P15941 24-1255). The experiment in a line: flow.
In test [2] the target is T1, MUC1 (MUC1-C) on cells. The experiment in a line: flow. This is another data set of the same source.

Like-named read-outs stand apart in the source and are kept apart here.

B1: T4E3 scFv-Fc (Fc fusion)
VH: QVQLVQSGGGLVQPGGSLRLSCAASGFTFDDYAMHWVRQAPGKGLEWVSGISWNSGSIGYADSVKGRFTISRDNAKNSLYLQMNSLRAEDTALYYCAKDIGSGSYYNYYYGMDVWGQGTTATISS
VL: SSELTQDPAVSVALGQTVRITCQGDSLRSYYASWYQQKPGQAPVLVIYGKNSRPSGIPDRFSGSNSGSTASLTITGAQAEDEADYYCNSRDRYGNSLVIFGGGTKLTVL
As to B1, the EC50 in the test with MUC1 (MUC1-C) on cells [1] and with MUC1 (MUC1-C) on cells [2] was 0.033 µg/mL in each case.
